Test system: peptide library, one residue held at a place counted from the S/T acceptor
Assay: relative phosphorylation of the sub-library (ratio to the mean residue at this position); higher = residue favoured
Details: human
Method in brief: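 Each biotinylated degenerate peptide sub-library fixed one residue at one position around a central Ser/Thr and was incubated with a purified recombinant kinase, a human or orthologue construct, in 384-well plates. The 90 min reactions, under kinase-specific conditions, contained 50 μM peptide and 50 μM ATP spiked with γ-32P-ATP. Phosphorylation was read by phosphorimaging spots on streptavidin membranes and quantifying them by densitometry. Relative sub-library phosphorylation expresses each value as a ratio to the mean residue at that position.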

Chain of LATS1, construct: aa589-end (O95835 589-1130, looked up): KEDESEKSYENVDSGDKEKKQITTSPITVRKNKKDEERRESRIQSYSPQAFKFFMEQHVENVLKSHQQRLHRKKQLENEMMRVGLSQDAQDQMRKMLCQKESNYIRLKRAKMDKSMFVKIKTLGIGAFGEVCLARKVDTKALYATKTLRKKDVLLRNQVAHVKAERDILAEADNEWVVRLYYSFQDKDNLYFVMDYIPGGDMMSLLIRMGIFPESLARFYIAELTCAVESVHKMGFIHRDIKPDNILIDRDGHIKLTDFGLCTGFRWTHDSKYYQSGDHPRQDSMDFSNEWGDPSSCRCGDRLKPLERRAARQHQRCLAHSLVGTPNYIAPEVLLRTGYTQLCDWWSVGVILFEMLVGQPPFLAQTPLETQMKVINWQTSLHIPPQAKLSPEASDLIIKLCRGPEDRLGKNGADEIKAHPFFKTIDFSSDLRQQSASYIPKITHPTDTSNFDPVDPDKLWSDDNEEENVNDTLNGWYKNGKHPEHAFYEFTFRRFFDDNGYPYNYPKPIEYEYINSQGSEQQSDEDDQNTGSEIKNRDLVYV
Chain of MAPK12, construct: Full length (P53778 whole entry, looked up): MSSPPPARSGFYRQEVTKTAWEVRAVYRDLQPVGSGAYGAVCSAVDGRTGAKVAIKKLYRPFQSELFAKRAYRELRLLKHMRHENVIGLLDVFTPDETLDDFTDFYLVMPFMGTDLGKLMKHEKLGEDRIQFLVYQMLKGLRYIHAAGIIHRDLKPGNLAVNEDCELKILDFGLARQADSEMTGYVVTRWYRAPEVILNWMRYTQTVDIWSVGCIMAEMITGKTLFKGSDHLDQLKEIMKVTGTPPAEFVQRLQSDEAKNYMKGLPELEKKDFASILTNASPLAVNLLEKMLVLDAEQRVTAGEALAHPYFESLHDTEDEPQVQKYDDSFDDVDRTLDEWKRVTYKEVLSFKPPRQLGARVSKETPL

RPS6KA4, construct: Full length (from UniProt O75676)
relative phosphorylation
Details	at +1	at +2	at +3	at +4	at -1	at -2	at -3	at -4	at -5
A fixed	0.665	0.804	0.781	0.843	0.745	0.911	0.769	1.08	1.06
D fixed	0.621	1.61	1.12	1.43	0.996	0.411	0.319	0.715	0.699
E fixed	0.77	1.07	1.12	1.33	0.567	0.413	0.329	0.853	0.661
F fixed	1.3	0.921	1.08	0.864	0.749	0.749	0.472	0.868	1.01
G fixed	0.547	0.65	1.03	1.1	1.11	0.775	0.465	1.15	1.06
H fixed	1.21	1.7	1.3	1.35	1.04	0.924	0.817	1.17	1.2
I fixed	1.26	0.85	0.811	0.767	0.44	0.354	0.258	0.665	0.858
K fixed	0.634	0.72	0.71	0.934	1.41	1.2	0.915	1.32	1.25
L fixed	1	0.698	0.998	0.782	0.791	0.518	0.285	0.679	1
M fixed	1.27	0.909	1.04	0.867	1.04	0.629	0.373	0.84	0.857
N fixed	0.937	1.44	0.935	1.23	1.57	0.861	0.473	1.01	0.871
P fixed	0.345	0.5	0.942	1.09	1.3	0.429	0.64	1.01	0.887
Q fixed	1.1	0.873	0.949	1.25	1.19	0.885	0.642	1.09	0.831
R fixed	0.771	0.869	0.677	0.74	1.5	6.18	8.7	1.81	1.96
V fixed	1.24	0.807	0.726	0.639	0.51	0.354	0.247	0.583	0.773
W fixed	1.89	1.39	1.62	1.07	0.898	0.748	0.738	1.13	1.19
Y fixed	1.44	1.18	1.17	0.72	1.14	0.66	0.555	1.04	0.832
pThr fixed	1.11	1.18	1.15	1.83	0.415	0.419	0.515	0.698	0.644
pTyr fixed	1.57	1.17	1.47	1.39	1.27	0.502	0.491	0.81	0.804

MAPK12, construct: Full length (from UniProt P53778)
relative phosphorylation
Details	at +1	at +2	at +3	at +4	at -1	at -2	at -3	at -4	at -5
A fixed	0.289	1.22	1.13	1.01	1.21	1.66	1.13	1.19	1.07
D fixed	0.0904	0.475	0.864	0.879	0.738	0.789	1.23	1.28	1.22
E fixed	0.0906	0.374	0.973	0.872	0.905	0.822	1.41	1.21	1.14
F fixed	0.153	0.77	0.897	1.1	0.582	0.444	0.622	0.672	0.818
G fixed	0.644	1.1	1.36	1.23	1.36	1.14	1.98	1.44	1.34
H fixed	0.183	1.38	1.26	1	1.17	0.584	1.23	1.04	1.16
I fixed	0.187	1.31	0.697	0.881	0.542	0.946	0.712	0.774	0.715
K fixed	0.152	1.08	0.962	0.931	1.04	0.433	0.761	1.12	1.28
L fixed	0.198	0.947	0.845	0.994	1.03	1.31	0.643	0.855	0.733
M fixed	0.17	0.878	0.851	1.15	1.27	1.16	0.838	0.949	0.83
N fixed	0.108	0.806	0.852	0.821	0.878	0.819	1.01	1.07	1.03
P fixed	13.8	0.539	1.33	1.11	1.37	3.27	1.33	1.11	1.27
Q fixed	0.141	0.914	0.934	0.921	1.13	0.742	0.918	0.916	0.937
R fixed	0.174	1.84	1.28	0.908	1.48	0.664	1.05	1.03	1.06
V fixed	0.302	1.36	0.855	0.89	0.611	1.31	0.649	0.654	0.823
W fixed	0.181	0.851	0.894	1.18	0.674	0.457	0.674	0.869	0.725
Y fixed	0.159	1.15	1.02	1.12	1.01	0.446	0.802	0.827	0.859
pThr fixed	0.509	1.04	0.824	0.669	0.457	0.823	1.27	1.15	1.42
pTyr fixed	0.52	0.799	0.925	0.686	0.878	1.11	1.56	1.28	1.44

LATS1, construct: aa589-end (from UniProt O95835)
relative phosphorylation
Details	at +1	at +2	at +3	at +4	at -1	at -2	at -3	at -4	at -5
A fixed	0.659	0.785	0.976	0.856	0.615	0.872	0.639	1.08	0.8
D fixed	1.01	1.11	1.46	1.45	1.88	1.91	1.24	0.946	1.01
E fixed	1.3	2.1	1.28	1.52	0.865	1.3	0.564	0.822	0.706
F fixed	0.776	0.66	0.867	0.785	0.27	0.756	0.375	0.839	0.611
G fixed	0.751	0.85	1.17	1.34	1.3	0.893	0.853	1.04	1.09
H fixed	0.946	1.2	1.03	1.22	0.891	0.974	1.2	1.6	4.19
I fixed	0.957	1.34	0.784	0.743	0.21	0.298	0.257	0.481	0.476
K fixed	1.23	0.623	1.27	0.844	2.38	1.36	1.78	1.15	0.971
L fixed	1.46	1.29	0.961	0.707	0.438	0.373	0.312	0.62	0.52
M fixed	1.8	0.941	0.791	0.994	0.667	0.692	0.427	0.8	0.74
N fixed	0.907	1.12	0.955	1.26	1.2	1.08	0.765	0.939	0.868
P fixed	0.648	0.816	1.08	0.982	3.01	0.99	2.34	1.42	0.834
Q fixed	0.91	0.846	0.941	0.924	1.02	1.41	0.705	1.02	0.718
R fixed	0.683	1.21	0.645	0.755	0.915	1.79	3.7	1.19	1.15
V fixed	0.797	0.771	0.902	0.647	0.294	0.359	0.326	0.61	0.613
W fixed	1.26	0.585	1.06	0.907	0.436	0.969	0.708	1.5	0.842
Y fixed	0.9	0.754	0.827	1.07	0.604	0.978	0.824	0.931	0.863
pThr fixed	1.2	1.09	1.2	2.38	0.769	0.586	0.536	0.599	0.598
pTyr fixed	0.854	0.716	0.789	1.15	0.411	0.431	0.542	0.578	0.613

SRPK1, construct: Full length (from UniProt Q96SB4)
relative phosphorylation
Details	at +1	at +2	at +3	at +4	at -1	at -2	at -3	at -4	at -5
A fixed	0.85	1.23	0.682	1.04	1.12	1.65	0.811	1.21	1.51
D fixed	0.273	1.46	0.499	1.13	0.486	1.63	0.506	0.682	0.77
E fixed	0.377	1.33	0.412	0.886	0.589	0.981	0.363	0.734	0.686
F fixed	0.387	0.626	0.424	0.741	0.476	0.637	0.297	0.713	1
G fixed	0.942	1.03	0.911	1.12	0.959	1.34	0.634	1.14	1.28
H fixed	0.563	1.61	0.697	0.988	1.2	1.72	0.454	0.956	0.954
I fixed	0.607	0.588	0.46	0.823	0.554	0.51	0.372	0.736	0.796
K fixed	1.55	1.14	1.43	1.47	2.19	1.34	1.02	1.61	1.58
L fixed	0.698	0.623	0.46	0.781	0.741	0.429	0.326	0.725	0.788
M fixed	0.62	0.715	0.499	0.773	0.723	0.5	0.302	0.823	0.892
N fixed	0.613	1.15	0.796	1.05	1.02	1.19	0.433	0.962	0.867
P fixed	4.75	1.34	1.69	1.36	1.9	1.03	0.6	1.38	1.01
Q fixed	0.932	0.981	0.699	1.1	1.16	0.692	0.596	0.87	0.675
R fixed	2.33	1.27	5.99	1.4	2.17	1.6	9.31	2.29	1.45
V fixed	0.722	0.715	0.458	0.705	0.698	0.54	0.343	0.66	0.879
W fixed	0.417	0.582	0.452	0.886	0.42	0.616	0.312	0.735	1.04
Y fixed	0.378	0.607	0.439	0.745	0.572	0.594	0.322	0.771	0.829
pThr fixed	0.489	1.26	0.585	1.19	0.548	0.681	0.51	0.772	0.765
pTyr fixed	0.462	0.95	0.653	1.06	0.753	1.39	0.694	1.43	0.947
